US20190062427A1

What was measured:
[1] = molecular target: human Siglec-9 expressed on human cells (human) (UniProt Q9Y336); assay: cell-based or functional assay
[2] = molecular target: human Siglec-9 expressed on human cells (human) (UniProt Q9Y336); assay: flow cytometry on human primary monocytes, isotype control, PE secondary
[3] = molecular target: human Siglec-9 expressed on human cells (human) (UniProt Q9Y336); assay: flow cytometry on human primary macrophages, isotype control, PE secondary
[4] = molecular target: human Siglec-9 expressed on human cells (human) (UniProt Q9Y336); assay: flow cytometry on human primary dendritic cells, isotype control, PE secondary
[5] = molecular target: Siglec-9-Fc (R&D Systems, catalog number 1139-SL-050) (human) (UniProt Q9Y336); assay: blocking assay by flow cytometry on U937 cells (sialic acid ligands); same table: S9-Fc alone 156, secondary alone 37.6; panel headed 'Isotype does not block'
[6] = molecular target: human Siglec-9 expressed on human cells (human) (UniProt Q9Y336); assay: flow cytometry on human primary monocytes, PE-conjugated secondary antibody only (no primary), background control
[7] = molecular target: human Siglec-9 expressed on human cells (human) (UniProt Q9Y336); assay: flow cytometry on human primary macrophages, PE-conjugated secondary antibody only (no primary), background control
[8] = molecular target: human Siglec-9 expressed on human cells (human) (UniProt Q9Y336); assay: flow cytometry on human primary dendritic cells, PE-conjugated secondary antibody only (no primary), background control

Chain of human Siglec-9 expressed on human cells (human) (Q9Y336 18-463): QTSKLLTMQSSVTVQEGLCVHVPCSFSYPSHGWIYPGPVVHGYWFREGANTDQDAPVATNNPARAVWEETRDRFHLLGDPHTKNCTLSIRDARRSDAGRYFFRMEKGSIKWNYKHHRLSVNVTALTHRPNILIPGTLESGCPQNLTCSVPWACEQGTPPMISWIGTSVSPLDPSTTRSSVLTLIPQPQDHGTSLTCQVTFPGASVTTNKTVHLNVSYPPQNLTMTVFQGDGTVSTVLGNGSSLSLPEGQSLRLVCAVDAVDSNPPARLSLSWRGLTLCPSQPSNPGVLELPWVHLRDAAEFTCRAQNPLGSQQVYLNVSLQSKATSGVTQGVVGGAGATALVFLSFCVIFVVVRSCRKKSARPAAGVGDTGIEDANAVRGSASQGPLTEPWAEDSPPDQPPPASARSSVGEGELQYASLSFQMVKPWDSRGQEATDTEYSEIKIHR
Chain of Siglec-9-Fc (R&D Systems, catalog number 1139-SL-050) (human) (Q9Y336 18-348 limits assumed): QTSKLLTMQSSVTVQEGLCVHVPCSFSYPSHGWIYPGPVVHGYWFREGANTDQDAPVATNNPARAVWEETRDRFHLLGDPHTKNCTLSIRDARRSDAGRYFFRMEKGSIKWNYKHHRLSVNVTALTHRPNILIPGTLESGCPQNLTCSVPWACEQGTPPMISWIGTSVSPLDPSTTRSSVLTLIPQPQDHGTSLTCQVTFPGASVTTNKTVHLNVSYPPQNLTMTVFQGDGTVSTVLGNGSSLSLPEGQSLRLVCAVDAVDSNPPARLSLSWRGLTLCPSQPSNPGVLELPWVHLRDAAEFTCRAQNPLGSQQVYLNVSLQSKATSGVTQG

Question: mIgG2b isotype control antibody was tested. Which Percent Siglec-9 Surface Expression, DCs (% Siglec-9) [1] did it give?
Answer: 93.4%

Question: And the Percent Siglec-9 Surface Expression, Macrophages (% Siglec-9) [1]?
Answer: 97.2%

Question: And the Percent Siglec-9 Surface Expression, Microglia (% Siglec-9) [1]?
Answer: 91.7%

Question: What about the Percent Siglec-9 Surface Expression, Monocytes (% Siglec-9) [1] of the same substance?
Answer: 98.9%

Question: And the Percent Siglec-9 Surface Expression, THP-1 cells (% Siglec-9) [1]?
Answer: 98%

Question: What about the % Positive [2] of the same substance?
Answer: 4%

Question: What about the MFI [2] of the same substance?
Answer: 145

Question: What about the % Positive [3] of the same substance?
Answer: 12.6%

Question: And the MFI [3]?
Answer: 180

Question: And the % Positive [4]?
Answer: 26.4%

Question: What about the MFI [4] of the same substance?
Answer: 319

Question: Which Mean : PE-A (Siglec-9-Fc bound to U937 cells in the presence of the mAb) [5] does the source give for Isotype (antibody) here?
Answer: 203

Question: For mIgG2a isotype control antibody, which Percent Siglec-9 Surface Expression, DCs (% Siglec-9) [1] is on record?
Answer: 98.6%

Question: And the Percent Siglec-9 Surface Expression, Macrophages (% Siglec-9) [1]?
Answer: 97.8%

Question: What about the Percent Siglec-9 Surface Expression, Microglia (% Siglec-9) [1] of the same substance?
Answer: 91.2%

Question: And the Percent Siglec-9 Surface Expression, Monocytes (% Siglec-9) [1]?
Answer: 101%

Question: And the Percent Siglec-9 Surface Expression, THP-1 cells (% Siglec-9) [1]?
Answer: 95.9%

Question: And the % Positive [2]?
Answer: 3.5%

Question: What about the MFI [2] of the same substance?
Answer: 127

Question: And the % Positive [3]?
Answer: 22.6%

Question: What about the MFI [3] of the same substance?
Answer: 164

Question: And the % Positive [4]?
Answer: 8.45%

Question: And the MFI [4]?
Answer: 121

Question: Which results are given for mIgG1 isotype control antibody?
Answer: Percent Siglec-9 Surface Expression, DCs (% Siglec-9) [1]: 96.5%; Percent Siglec-9 Surface Expression, Macrophages (% Siglec-9) [1]: 99.3%; Percent Siglec-9 Surface Expression, Microglia (% Siglec-9) [1]: 90.3%; Percent Siglec-9 Surface Expression, Monocytes (% Siglec-9) [1]: 100%; Percent Siglec-9 Surface Expression, THP-1 cells (% Siglec-9) [1]: 100%; % Positive [2]: 2.6%; MFI [2]: 104; % Positive [3]: 3.01%; MFI [3]: 115; % Positive [4]: 12.3%; MFI [4]: 132

Question: For PE-conjugated secondary antibody, which % Positive [6] is on record?
Answer: 2.6%

Question: And the MFI [6]?
Answer: 105

Question: And the % Positive [7]?
Answer: 3.58%

Question: What about the MFI [7] of the same substance?
Answer: 153

Question: And the % Positive [8]?
Answer: 7.05%

Question: And the MFI [8]?
Answer: 90.1
